One series deals with CM79. Briefly: CM79 binding to CPG2 variants by ELISA. On the set-up: species or system mice. The settings on record: clarified culture supernatants. The source says: CM79 binding and CPG2 enzyme activity of all CPG2 variants were initially tested in clarified culture supernatants for CM79 binding.
For orientation: In an ELISA, binding on a coated surface is turned into a signal by an enzyme label.

Series [1] is described as follows: CPG2 enzyme activity of variants. It is filed as biochemical. The following applies: clarified culture supernatants. The source says:
Thus for example, CPG2 activity may be tested by the ability of the enzyme to hydrolyse methotrexate (MTX). CPG2 hydrolysis of MTX results in a change in absorbance at 320 nm which may be measured by spectrophotometry. CPG2 catalytic activity in solid tissues can be assayed using an indirect HPLC method, measuring, for example, 2,4-diamino-N^10 methypteroic acid (DAMPA, a metabolite of MTX).
CM79 binding and CPG2 enzyme activity of all CPG2 variants were initially tested in clarified culture supernatants for CM79 binding. […] The variant V8 MFE-23::CPG2 indicated the role of the c-terminus in CM79 binding of CPG2 (FIG. 4, Table 1). CM79 bound to all the remaining CPG2 variants (Table 1).
Radiolabelled proteins were FPLC purified using a Superose 12 column (Pharmacia; PBS mobile phase 0.5 ml/min). Gamma radiation emitting fractions at 135 kDa elution point were tested for CPG2 enzyme activity. Protein concentrations were determined using Lowry reagent according to the manufacturer's protocol (BioRad).

B1: wild-type CPG2: MFE-23::CPG2 fusion protein with wild-type CPG2: Region 1 KEYGVRD (SEQ ID NO:2), Region 2 GAGK (SEQ ID NO:4) (protein)
chain: ALAQKRDNVLFQAATDEQPAVIKTLEKLVNIETGTGDAEGIAAAGNFLEAELKNLGFTVTRSKSAGLVVGDNIVGKIKGRGGKNLLLMSHMDTVYLKGILAKAPFRVEGDKAYGPGIADDKGGNAVILHTLKLLKEYGVRDYGTITVLFNTDEEKGSFGSRDLIQEEAKLADYVLSFEPTSAGDEKLSLGTSGIAYVQVNITGKASHAGAAPELGVNALVEASDLVLRTMNIDDKAKNLRFNWTIAKAGNVSNIIPASATLNADVRYARNEDFDAAMKTLEERAQQKKLPEADVKVIVTRGRPAFNAGEGGKKLVDKAVAYYKEAGGTLGVEERTGGGTDAAYAALSGKPVIESLGLPGFGYHSDKAEYVDISAIPRRLYMAARLIMDLGAGK
With B1, the CM79 binding entry in the series with CM79 was “Yes”. The “Enzyme Activity” value in series [1] was “Yes”.

The values above are taken from patent US6656718B2, “Modified carboxypeptidase enzymes and their use” (Cancer Research Technology Limited, priority 2000, dated 2003).
